The target of the experiment is IL-10 receptors IL-10RA and IL-10RB engineered into U2OS osteosarcoma cells (UniProt Q13651). The experiment is described as follows: cell-based or functional assay.

As for “recombinant human IL-10 (rhIL-10) (from UniProt P22301 19-178) (ligand)”, the EC50, luminescence from ligand-induced IL-10RA/IL-10RB receptor dimerization in engineered U2OS cells stood at 0.0915 nM.

For the origin of these results see patent US20260001927A1.
